Reference: PMC8494430, “Development of a fluorogenic ADAMTS-7 substrate” (Journal of Enzyme Inhibition and Medicinal Chemistry, 2021)
Where two headings read alike, the source gives them in different places.

T1: ADAMTS-7 (Homo sapiens, UniProt Q9UKP4)
T1 construct: the recombinant construct ADAMTS7-T8, which lacks the C-terminal PLAC domain; made in house
T1 sequence (Q9UKP4 237-1631 limits assumed): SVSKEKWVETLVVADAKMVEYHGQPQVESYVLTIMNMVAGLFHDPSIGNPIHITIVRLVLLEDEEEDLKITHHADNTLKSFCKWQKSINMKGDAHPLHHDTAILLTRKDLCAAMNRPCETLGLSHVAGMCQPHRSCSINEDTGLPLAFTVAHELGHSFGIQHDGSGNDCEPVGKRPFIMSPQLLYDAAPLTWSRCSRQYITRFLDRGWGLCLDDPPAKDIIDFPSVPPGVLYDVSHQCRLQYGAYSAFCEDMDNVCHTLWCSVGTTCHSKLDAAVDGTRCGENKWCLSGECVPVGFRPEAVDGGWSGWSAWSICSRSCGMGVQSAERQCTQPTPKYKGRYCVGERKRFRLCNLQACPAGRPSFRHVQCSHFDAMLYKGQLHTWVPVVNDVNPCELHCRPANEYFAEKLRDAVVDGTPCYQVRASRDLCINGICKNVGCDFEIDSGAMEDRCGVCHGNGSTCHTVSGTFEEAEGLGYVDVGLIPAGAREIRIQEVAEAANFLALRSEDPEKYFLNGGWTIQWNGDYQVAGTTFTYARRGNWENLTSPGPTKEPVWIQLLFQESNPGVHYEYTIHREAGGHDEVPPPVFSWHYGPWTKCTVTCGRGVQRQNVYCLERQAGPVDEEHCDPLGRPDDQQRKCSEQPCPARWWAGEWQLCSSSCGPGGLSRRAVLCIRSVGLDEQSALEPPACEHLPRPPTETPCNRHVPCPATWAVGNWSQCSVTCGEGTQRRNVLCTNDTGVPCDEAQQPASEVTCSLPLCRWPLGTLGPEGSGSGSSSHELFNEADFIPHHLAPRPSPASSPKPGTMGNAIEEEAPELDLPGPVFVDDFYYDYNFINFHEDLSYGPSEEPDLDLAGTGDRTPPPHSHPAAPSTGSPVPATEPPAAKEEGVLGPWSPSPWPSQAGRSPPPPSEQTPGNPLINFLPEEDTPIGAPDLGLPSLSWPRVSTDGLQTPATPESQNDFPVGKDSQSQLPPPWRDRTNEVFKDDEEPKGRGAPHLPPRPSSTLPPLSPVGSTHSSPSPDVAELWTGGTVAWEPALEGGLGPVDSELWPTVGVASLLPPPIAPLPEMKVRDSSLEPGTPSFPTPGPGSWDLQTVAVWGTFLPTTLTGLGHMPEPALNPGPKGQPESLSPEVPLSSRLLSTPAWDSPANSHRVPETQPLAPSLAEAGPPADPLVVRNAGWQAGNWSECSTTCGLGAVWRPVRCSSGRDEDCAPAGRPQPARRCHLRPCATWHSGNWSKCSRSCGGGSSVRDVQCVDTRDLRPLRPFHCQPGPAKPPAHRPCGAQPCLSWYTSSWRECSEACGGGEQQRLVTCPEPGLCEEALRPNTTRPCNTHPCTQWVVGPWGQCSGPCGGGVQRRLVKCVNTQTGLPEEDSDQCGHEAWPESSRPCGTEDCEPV


Tests used:
[1] = Appearance of solution upon dilution of peptide in assay buffer (solubility); format: physicochemical; settings: 10 mM DMSO stock diluted in assay buffer
Description: The cleavage sites ^193Arg↓Ala^194 and ^195Glu↓Ala^196 were chosen to design the FRET substrate ATS7FP0 (Table 1). This peptide covers residues Ala^188-Ala^198 in LTBP4S and contains a FAM/TAMRA fluorophore/quencher pair. The quencher is covalently linked to the ε amino group of an extra C-terminal lysine residue. Stock solutions were routinely prepared at 10 mM in DMSO and stored at −80 °C. […] This was most likely due to the high content in hydrophobic amino acids of this peptide, which added to the hydrophobicity of the fluorophore/quencher pair. Nevertheless, ATS7FP0 generated fluorescence upon cleavage by ADAMTS-7 (Figure 2(A)). With the aim to improve both solubility and cleavage rate by ADAMTS-7, seven additional peptides were designed using the sequence of ATS7FP0 as a starting point. The N-terminal alanine residue present in ATS7FP0 was removed to generate peptide ATS7FP7 with a reduced aliphatic index (Table 1). […] To assess the effect of a P4′ proline residue on the cleavage rate, peptide ATS7FP7 was modified to generate ATS7FP8. […] Since we also determined that ADAMTS-7 prefers arginine in P1 (Figure 1(D)), we mutated one alanine residue in the parental sequence into arginine with the aim to improve both cleavage rate and hydrophilicity, thus generating peptide ATS7FP3. […]

ADAMTS-7 [2] = biological target: T1, ADAMTS-7; assay: Inhibition of ADAMTS-7 cleavage of FRET substrate ATS7FP7; format: biochemical
Description: All enzyme assays were conducted in TNC-B buffer (50 mM Tris- HCl, pH 7.5, 150 mM NaCl, 10 mM CaCl2, and 0.02% NaN3) at 37 °C in 384 well plates (Cat. No: 784900, Greiner Bio-One, Austria). To avoid the formation of inhibitor or peptide aggregates, the detergent Brij-35 (0.05%) was added to TNC-B[13]. For inhibition studies, stock solutions of chemical compounds were prepared in dimethyl sulfoxide (DMSO) (10 mM). […] Blank samples were prepared using buffer only and the rate of cleavage for blank reactions was subtracted from the rates measured in the presence of enzyme. Upon addition of the indicated ADAMTS-7 FRET substrates (40 µM), the fluorescence was measured immediately using a FLUOstar Omega microplate reader (BMG Labtech, Germany) with an excitation filter wavelength of 485 nm and an emission filter wavelength of 520 nm.

[3] = biological target: ADAMTS7-T8 (recombinant human ADAMTS-7 construct lacking the C-terminal PLAC domain) (human) (UniProt Q9UKP4); assay: enzyme inhibition assay (cleavage of a FRET peptide); ADAMTS-7 (5 nM) pre-incubated 1 h at 37 °C with TIMP-4, then ATS7FP7 (40 µM) added; TNC-B buffer (50 mM Tris-HCl pH 7.5, 150 mM NaCl, 10 mM CaCl2, 0.02% NaN3) with 0.05% Brij-35; 384 well plates; apparent Ki from the Morrison equation for tight binding inhibitors
Chain of ADAMTS7-T8 (recombinant human ADAMTS-7 construct lacking the C-terminal PLAC domain) (human) (Q9UKP4 28-1686): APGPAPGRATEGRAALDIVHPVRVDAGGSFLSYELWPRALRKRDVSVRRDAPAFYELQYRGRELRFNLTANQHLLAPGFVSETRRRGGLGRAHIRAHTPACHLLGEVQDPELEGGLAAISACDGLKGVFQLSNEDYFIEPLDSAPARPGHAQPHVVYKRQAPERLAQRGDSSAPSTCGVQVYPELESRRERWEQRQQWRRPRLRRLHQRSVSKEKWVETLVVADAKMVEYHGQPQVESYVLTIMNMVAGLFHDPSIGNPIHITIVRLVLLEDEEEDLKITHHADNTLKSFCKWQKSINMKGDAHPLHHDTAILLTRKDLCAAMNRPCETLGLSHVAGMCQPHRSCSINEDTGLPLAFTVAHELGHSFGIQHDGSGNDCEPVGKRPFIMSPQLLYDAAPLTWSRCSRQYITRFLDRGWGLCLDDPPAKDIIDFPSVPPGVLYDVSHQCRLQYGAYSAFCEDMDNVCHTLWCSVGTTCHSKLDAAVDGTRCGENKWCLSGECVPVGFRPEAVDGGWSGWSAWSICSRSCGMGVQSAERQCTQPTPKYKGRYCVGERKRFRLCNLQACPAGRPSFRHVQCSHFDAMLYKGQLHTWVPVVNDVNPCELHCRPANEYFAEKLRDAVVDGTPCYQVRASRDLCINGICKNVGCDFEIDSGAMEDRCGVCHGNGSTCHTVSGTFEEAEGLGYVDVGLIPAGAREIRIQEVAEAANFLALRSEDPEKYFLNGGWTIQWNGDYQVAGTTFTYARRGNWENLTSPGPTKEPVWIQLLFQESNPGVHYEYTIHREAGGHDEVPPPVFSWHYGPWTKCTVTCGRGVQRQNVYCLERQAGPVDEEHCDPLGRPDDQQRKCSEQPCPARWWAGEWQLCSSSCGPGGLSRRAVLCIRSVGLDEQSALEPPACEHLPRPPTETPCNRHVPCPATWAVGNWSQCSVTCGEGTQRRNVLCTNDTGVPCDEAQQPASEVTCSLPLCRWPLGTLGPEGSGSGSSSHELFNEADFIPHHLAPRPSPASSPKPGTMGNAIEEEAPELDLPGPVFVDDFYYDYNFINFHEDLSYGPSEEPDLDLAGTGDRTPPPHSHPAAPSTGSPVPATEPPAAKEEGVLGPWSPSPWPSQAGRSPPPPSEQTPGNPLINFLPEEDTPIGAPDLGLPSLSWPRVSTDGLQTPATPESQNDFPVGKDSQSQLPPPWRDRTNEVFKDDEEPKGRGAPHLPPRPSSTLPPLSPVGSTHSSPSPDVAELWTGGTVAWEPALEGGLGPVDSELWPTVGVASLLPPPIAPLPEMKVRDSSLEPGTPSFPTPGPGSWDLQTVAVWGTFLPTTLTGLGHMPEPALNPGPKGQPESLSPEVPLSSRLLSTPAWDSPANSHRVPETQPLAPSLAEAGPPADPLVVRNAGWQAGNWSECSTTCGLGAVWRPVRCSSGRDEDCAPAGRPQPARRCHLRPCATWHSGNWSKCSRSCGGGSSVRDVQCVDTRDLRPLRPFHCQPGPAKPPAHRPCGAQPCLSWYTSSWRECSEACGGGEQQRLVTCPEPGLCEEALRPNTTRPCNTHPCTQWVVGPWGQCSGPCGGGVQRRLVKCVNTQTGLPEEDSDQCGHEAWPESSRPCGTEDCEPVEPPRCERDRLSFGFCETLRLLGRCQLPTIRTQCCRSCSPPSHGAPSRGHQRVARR

[4] = biological target: ADAMTS7-T8 (recombinant human ADAMTS-7 construct lacking the C-terminal PLAC domain) (human) (UniProt Q9UKP4)
ADAMTS-7 [5] = biological target: T1, ADAMTS-7; settings: read-out: Ki app for inhibition of cleavage of LTBP4; cited from earlier work

Molecule | appearance of solution upon dilution in the assay buffer (solubility) [1] | Ki (ADAMTS-7 [2]; 5 nM ADAMTS-7, Morrison equation for tight binding inhibitors, read-out: Ki app (ATS7FP7 substrate)) [nM] | IC50 (ADAMTS-7 [2]; ATS7FP7 40 μM, 1 h preincubation, 37 °C) [nM] | Ki [3] [nM] | IC50 of inhibition of ADAMTS-7 cleavage of the FRET peptide substrate ATS7FP7 [4] [nM] | Ki (ADAMTS-7 [5]) [nM]
Ala-Glu-Ala-Ala-Ala-Arg↓Ala-Glu↓Ala-Ala-Ala-Lys [ATS7FP0] | non-homogenous | – | – | – | – | –
Recombinant human tissue inhibitor of metalloproteinase (TIMP)-4 (natural protein) CSCAPAHPQQHICHSALVIRAKISSEKVVPASADPADTEKMLRYEIKQIKMFKGFEKVKDVQYIYTPFDSSLCGVKLEANSQKQYLLTGQVLSDGKVFIHLCNYIEPWEDLSLVQRESLNHHYHLNCGCQITTCYTVPCTISAPNECLWTDWLLERKLYGYQAQHYVCMKHVDGTCSWYRGHLPLRKEFVDIVQP | – | 3.2 ± 1 | 18 ± 6 | 3.2 | 18 | 13
